Results reported in patent publication US20120087917A1.

How the values were obtained:
[1] = target: LOXL2 (lysyl oxidase-like 2) (human) (UniProt Q9Y4K0); assay: cell-based or functional assay
[2] = target: LOXL2 (lysyl oxidase-like 2) (human) (UniProt Q9Y4K0); assay: SPR, Bio-Rad ProteOn, amine coupling, 25 C

LOXL2 (lysyl oxidase-like 2) (human), sequence (Q9Y4K0 26-774 limits assumed): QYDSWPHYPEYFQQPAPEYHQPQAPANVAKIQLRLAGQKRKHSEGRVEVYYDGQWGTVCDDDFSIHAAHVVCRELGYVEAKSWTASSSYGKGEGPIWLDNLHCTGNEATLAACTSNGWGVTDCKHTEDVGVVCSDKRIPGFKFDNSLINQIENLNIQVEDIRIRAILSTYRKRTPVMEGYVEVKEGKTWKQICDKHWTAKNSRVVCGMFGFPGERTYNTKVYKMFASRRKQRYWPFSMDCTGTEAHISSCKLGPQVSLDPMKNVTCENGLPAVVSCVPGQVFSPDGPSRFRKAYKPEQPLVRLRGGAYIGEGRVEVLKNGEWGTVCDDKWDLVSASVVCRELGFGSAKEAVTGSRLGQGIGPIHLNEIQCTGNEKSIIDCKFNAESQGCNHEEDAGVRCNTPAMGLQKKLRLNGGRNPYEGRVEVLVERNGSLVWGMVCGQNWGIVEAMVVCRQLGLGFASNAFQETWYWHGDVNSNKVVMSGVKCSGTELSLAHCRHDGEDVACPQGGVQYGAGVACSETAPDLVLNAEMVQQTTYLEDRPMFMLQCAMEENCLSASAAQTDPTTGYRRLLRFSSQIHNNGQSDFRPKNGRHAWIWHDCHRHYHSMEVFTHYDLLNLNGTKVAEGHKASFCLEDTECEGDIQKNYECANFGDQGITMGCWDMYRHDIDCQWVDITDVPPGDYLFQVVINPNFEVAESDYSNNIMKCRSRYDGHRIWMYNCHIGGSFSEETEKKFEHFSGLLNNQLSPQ

B1: anti-LOXL2 antibody AB0023 (murine monoclonal antibody) (antibody, V domains shown)
VH: QVQLQQSGAELVRPGTSVKVSCKASGYAFTYYLIEWVKQRPGQGLEWIGVINPGSGGTNYNEKFKGKATLTADKSSSTAYMQLSSLTSDDSAVYFCARNWMNFDYWGQGTTLTVSS
VL: DIVMTQAAPSVSVTPGESVSISCRSSKSLLHSNGNTYLYWFLQRPGQSPQFLIYRMSNLASGVPDRFSGSGSGTAFTLRISRVEAEDVGVYYCMQHLEYPYTFGGGTKLEIK
apparent IC50, LOXL2 enzymatic activity (amplex red/HRP coupled assay, 1,5-diaminopentane substrate) [1]: 30 nM
α (effect of the antibody on substrate affinity; mode of inhibition) [1]: 1
β (effect of the antibody on the rate of the enzyme; mode of inhibition) [1]: 0.5
Kd [2]: 0.1 to 1 nM
t1/2 [2]: 1.65 h
